# How the values were obtained:
# Experiment in all cases: flow cytometry, alanine scan
# human CD33 G318A = human CD33 G318A (human, UniProt P20138 18-364)
# human CD33 P319A = human CD33 P319A (human, UniProt P20138 18-364)
# human CD33 T320A = human CD33 T320A (human, UniProt P20138 18-364)
# human CD33 E321A = human CD33 E321A (human, UniProt P20138 18-364)
# human CD33 T322A = human CD33 T322A (human, UniProt P20138 18-364)
# human CD33 S323A = human CD33 S323A (human, UniProt P20138 18-364)
# human CD33 S324A = human CD33 S324A (human, UniProt P20138 18-364)
# human CD33 C325A = human CD33 C325A (human, UniProt P20138 18-364)
# Sequence of human CD33 C325A (P20138 18-364 C325A limits assumed): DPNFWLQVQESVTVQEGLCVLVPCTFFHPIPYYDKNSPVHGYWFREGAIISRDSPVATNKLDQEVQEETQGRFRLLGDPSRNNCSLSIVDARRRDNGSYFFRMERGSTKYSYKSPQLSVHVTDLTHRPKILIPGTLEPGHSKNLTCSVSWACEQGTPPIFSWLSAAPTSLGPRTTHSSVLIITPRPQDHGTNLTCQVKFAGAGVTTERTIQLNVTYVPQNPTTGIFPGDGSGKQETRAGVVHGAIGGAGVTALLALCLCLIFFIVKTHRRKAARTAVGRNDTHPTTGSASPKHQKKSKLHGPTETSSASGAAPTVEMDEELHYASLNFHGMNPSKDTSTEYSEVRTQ
# human CD33 S326A = human CD33 S326A (human, UniProt P20138 18-364)
# Sequence of human CD33 S326A (P20138 18-364 S326A limits assumed): as the sequence (P20138 18-364 C325A limits assumed) above, with A308C, S309A counted along it
# human CD33 G327A = human CD33 G327A (human, UniProt P20138 18-364)
# human CD33 A328S = human CD33 A328S (human, UniProt P20138 18-364)
# Sequence of human CD33 A328S (P20138 18-364 A328S limits assumed): as the sequence (P20138 18-364 C325A limits assumed) above, with A308C, A311S counted along it
# human CD33 A329S = human CD33 A329S (human, UniProt P20138 18-364)
# human CD33 P330A = human CD33 P330A (human, UniProt P20138 18-364)
# Sequence of human CD33 P330A (P20138 18-364 P330A limits assumed): as the sequence (P20138 18-364 C325A limits assumed) above, with A308C, P313A counted along it
# human CD33 T331A = human CD33 T331A (human, UniProt P20138 18-364)
# human CD33 V332A = human CD33 V332A (human, UniProt P20138 18-364)
# human CD33 E333A = human CD33 E333A (human, UniProt P20138 18-364)
# Sequence of human CD33 E333A (P20138 18-364 E333A limits assumed): as the sequence (P20138 18-364 C325A limits assumed) above, with A308C, E316A counted along it
# human CD33 M334A = human CD33 M334A (human, UniProt P20138 18-364)
# Sequence of human CD33 M334A (P20138 18-364 M334A limits assumed): as the sequence (P20138 18-364 C325A limits assumed) above, with A308C, M317A counted along it
# human CD33 D335A = human CD33 D335A (human, UniProt P20138 18-364)
# human CD33 E336A = human CD33 E336A (human, UniProt P20138 18-364)
# human CD33 E337A = human CD33 E337A (human, UniProt P20138 18-364)
# human CD33 L338A = human CD33 L338A (human, UniProt P20138 18-364)
# Sequence of human CD33 L338A (P20138 18-364 L338A limits assumed): as the sequence (P20138 18-364 C325A limits assumed) above, with A308C, L321A counted along it
# human CD33 H339A = human CD33 H339A (human, UniProt P20138 18-364)
# human CD33 Y340A = human CD33 Y340A (human, UniProt P20138 18-364)
# Sequence of human CD33 Y340A (P20138 18-364 Y340A limits assumed): as the sequence (P20138 18-364 C325A limits assumed) above, with A308C, Y323A counted along it
# human CD33 A341S = human CD33 A341S (human, UniProt P20138 18-364)
# human CD33 S342A = human CD33 S342A (human, UniProt P20138 18-364)
# human CD33 L343A = human CD33 L343A (human, UniProt P20138 18-364)
# Sequence of human CD33 L343A (P20138 18-364 L343A limits assumed): as the sequence (P20138 18-364 C325A limits assumed) above, with A308C, L326A counted along it
# human CD33 N344A = human CD33 N344A (human, UniProt P20138 18-364)
# human CD33 F345A = human CD33 F345A (human, UniProt P20138 18-364)
# human CD33 H346A = human CD33 H346A (human, UniProt P20138 18-364)
# human CD33 G347A = human CD33 G347A (human, UniProt P20138 18-364)
# human CD33 M348A = human CD33 M348A (human, UniProt P20138 18-364)
# Sequence of human CD33 M348A (P20138 18-364 M348A limits assumed): as the sequence (P20138 18-364 C325A limits assumed) above, with A308C, M331A counted along it
# human CD33 N349A = human CD33 N349A (human, UniProt P20138 18-364)
# human CD33 P350A = human CD33 P350A (human, UniProt P20138 18-364)
# human CD33 S351A = human CD33 S351A (human, UniProt P20138 18-364)
# human CD33 K352A = human CD33 K352A (human, UniProt P20138 18-364)
# human CD33 D353A = human CD33 D353A (human, UniProt P20138 18-364)
# human CD33 T354A = human CD33 T354A (human, UniProt P20138 18-364)
# human CD33 S355A = human CD33 S355A (human, UniProt P20138 18-364)
# human CD33 T356A = human CD33 T356A (human, UniProt P20138 18-364)
# Sequence of human CD33 T356A (P20138 18-364 T356A limits assumed): as the sequence (P20138 18-364 C325A limits assumed) above, with A308C, T339A counted along it
# human CD33 E357A = human CD33 E357A (human, UniProt P20138 18-364)
# human CD33 Y358A = human CD33 Y358A (human, UniProt P20138 18-364)
# human CD33 S359A = human CD33 S359A (human, UniProt P20138 18-364)
# Sequence of human CD33 S359A (P20138 18-364 S359A limits assumed): as the sequence (P20138 18-364 C325A limits assumed) above, with A308C, S342A counted along it
# human CD33 E360A = human CD33 E360A (human, UniProt P20138 18-364)
# human CD33 V361A = human CD33 V361A (human, UniProt P20138 18-364)
# human CD33 R362A = human CD33 R362A (human, UniProt P20138 18-364)
# human CD33 T363A = human CD33 T363A (human, UniProt P20138 18-364)
# human CD33 Q364A = human CD33 Q364A (human, UniProt P20138 18-363)
# Sequence of human CD33 T320A (P20138 18-364 T320A limits assumed): as the sequence (P20138 18-364 C325A limits assumed) above, with T303A, A308C counted along it
# Sequence of human CD33 P319A (P20138 18-364 P319A limits assumed): as the sequence (P20138 18-364 C325A limits assumed) above, with P302A, A308C counted along it
binder,measurement,setting,value
"Refmab #3 (antibody, V domains shown, The alanine scan used IgG or Fab) VH: QVQLVQSGAEVKKPGSSVKVSCKASGYTFTDYNMHWVRQAPGQGLEWIGYIYPYNGGTGYNQKFKSKATITADESTNTAYMELSSLRSEDTAVYYCARGRPAMDYWGQGTLVTVSS VL: DIQMTQSPSSLSASVGDRVTITCRASESVDNYGISFMNWFQQKPGKAPKLLIYAASNQGSGVPSRFSGSGSGTDFTLTISSLQPDDFATYYCQQSKEVPWTFGQGTKVEIK",Mean % WT Binding,human CD33 G318A,117 % of WT
same,Mean % WT Binding,human CD33 P319A,76.4 % of WT
same,Mean % WT Binding,human CD33 T320A,82.4 % of WT
same,Mean % WT Binding,human CD33 E321A,88.4 % of WT
same,Mean % WT Binding,human CD33 T322A,83.5 % of WT
same,Mean % WT Binding,human CD33 S323A,115 % of WT
same,Mean % WT Binding,human CD33 S324A,109 % of WT
same,Mean % WT Binding,human CD33 C325A,91.2 % of WT
same,Mean % WT Binding,human CD33 S326A,129 % of WT
same,Mean % WT Binding,human CD33 G327A,132 % of WT
same,Mean % WT Binding,human CD33 A328S,127 % of WT
same,Mean % WT Binding,human CD33 A329S,133 % of WT
same,Mean % WT Binding,human CD33 P330A,146 % of WT
same,Mean % WT Binding,human CD33 T331A,147 % of WT
same,Mean % WT Binding,human CD33 V332A,89.8 % of WT
same,Mean % WT Binding,human CD33 E333A,104 % of WT
same,Mean % WT Binding,human CD33 M334A,81.2 % of WT
same,Mean % WT Binding,human CD33 D335A,87.4 % of WT
same,Mean % WT Binding,human CD33 E336A,103 % of WT
same,Mean % WT Binding,human CD33 E337A,114 % of WT
same,Mean % WT Binding,human CD33 L338A,89.3 % of WT
same,Mean % WT Binding,human CD33 H339A,83.5 % of WT
same,Mean % WT Binding,human CD33 Y340A,88 % of WT
same,Mean % WT Binding,human CD33 A341S,138 % of WT
same,Mean % WT Binding,human CD33 S342A,121 % of WT
same,Mean % WT Binding,human CD33 L343A,77.4 % of WT
same,Mean % WT Binding,human CD33 N344A,118 % of WT
same,Mean % WT Binding,human CD33 F345A,84 % of WT
same,Mean % WT Binding,human CD33 H346A,133 % of WT
same,Mean % WT Binding,human CD33 G347A,118 % of WT
same,Mean % WT Binding,human CD33 M348A,133 % of WT
same,Mean % WT Binding,human CD33 N349A,121 % of WT
same,Mean % WT Binding,human CD33 P350A,90.7 % of WT
same,Mean % WT Binding,human CD33 S351A,91.8 % of WT
same,Mean % WT Binding,human CD33 K352A,96.3 % of WT
same,Mean % WT Binding,human CD33 D353A,98.3 % of WT
same,Mean % WT Binding,human CD33 T354A,89.1 % of WT
same,Mean % WT Binding,human CD33 S355A,85.6 % of WT
same,Mean % WT Binding,human CD33 T356A,108 % of WT
same,Mean % WT Binding,human CD33 E357A,120 % of WT
same,Mean % WT Binding,human CD33 Y358A,140 % of WT
same,Mean % WT Binding,human CD33 S359A,135 % of WT
same,Mean % WT Binding,human CD33 E360A,123 % of WT
same,Mean % WT Binding,human CD33 V361A,97.6 % of WT
same,Mean % WT Binding,human CD33 R362A,114 % of WT
same,Mean % WT Binding,human CD33 T363A,91.5 % of WT
same,Mean % WT Binding,human CD33 Q364A,97.8 % of WT

# From patent US20260242735A1 (UNIVERSIT T BASEL, published 2026)
